# Assays:
# [1] = molecular target: c-Src SH2; assay: SH2 binding enrichment of the phosphorylated peptide, bacterial display (enrichment ratio); higher = better substrate or ligand; peptides without Tyr show the background
# [2] = molecular target: Grb2 SH2 (UniProt P62993); assay: as above
# [3] = molecular target: SHP2-C SH2; assay: as above
# [4] = molecular target: EPHB2 (UniProt P29323); assay: phosphorylation enrichment, bacterial display (enrichment ratio); higher = better substrate or ligand; peptides without Tyr show the background
# [5] = tested on: c-Abl (mouse); assay: as above
# [6] = molecular target: EPHB1 (UniProt P54762); assay: as above
# [7] = molecular target: FGFR1 (UniProt P11362); assay: as above
# [8] = molecular target: Jak2 (UniProt O60674); assay: as above
# [9] = tested on: Fer (mouse); assay: as above
# [10] = molecular target: Hck (UniProt P08631); assay: as above
# [11] = tested on: c-Src; assay: as above
# [12] = tested on: AncSZ; assay: as above
# [13] = molecular target: FGFR3 (UniProt P22607); assay: as above
# [14] = molecular target: Fyn (UniProt P06241); assay: as above
# [15] = molecular target: Fes (UniProt P07332); assay: as above
# [16] = molecular target: MERTK (UniProt Q12866); assay: as above
# 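Throughout, for SH2 binding enrichment of the phosphorylated peptide, bacterial display: peptide library displayed on the E. coli surface as eCPX fusions, selected cells deep-sequenced, score is each peptide's frequency after selection divided by its frequency in the input.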
# 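Throughout, for phosphorylation enrichment, bacterial display: 11-residue human phosphosite peptides and single-mutation variants displayed on the E. coli surface, counted by deep sequencing, each peptide's frequency after selection divided by its frequency in the unselected input library; frequency after pTyr selection over input frequency; kinase dosed for 20-30% of maximal phosphorylation in three min.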
# MERTK, sequence (Q12866 whole entry, looked up, the tested form may be a part): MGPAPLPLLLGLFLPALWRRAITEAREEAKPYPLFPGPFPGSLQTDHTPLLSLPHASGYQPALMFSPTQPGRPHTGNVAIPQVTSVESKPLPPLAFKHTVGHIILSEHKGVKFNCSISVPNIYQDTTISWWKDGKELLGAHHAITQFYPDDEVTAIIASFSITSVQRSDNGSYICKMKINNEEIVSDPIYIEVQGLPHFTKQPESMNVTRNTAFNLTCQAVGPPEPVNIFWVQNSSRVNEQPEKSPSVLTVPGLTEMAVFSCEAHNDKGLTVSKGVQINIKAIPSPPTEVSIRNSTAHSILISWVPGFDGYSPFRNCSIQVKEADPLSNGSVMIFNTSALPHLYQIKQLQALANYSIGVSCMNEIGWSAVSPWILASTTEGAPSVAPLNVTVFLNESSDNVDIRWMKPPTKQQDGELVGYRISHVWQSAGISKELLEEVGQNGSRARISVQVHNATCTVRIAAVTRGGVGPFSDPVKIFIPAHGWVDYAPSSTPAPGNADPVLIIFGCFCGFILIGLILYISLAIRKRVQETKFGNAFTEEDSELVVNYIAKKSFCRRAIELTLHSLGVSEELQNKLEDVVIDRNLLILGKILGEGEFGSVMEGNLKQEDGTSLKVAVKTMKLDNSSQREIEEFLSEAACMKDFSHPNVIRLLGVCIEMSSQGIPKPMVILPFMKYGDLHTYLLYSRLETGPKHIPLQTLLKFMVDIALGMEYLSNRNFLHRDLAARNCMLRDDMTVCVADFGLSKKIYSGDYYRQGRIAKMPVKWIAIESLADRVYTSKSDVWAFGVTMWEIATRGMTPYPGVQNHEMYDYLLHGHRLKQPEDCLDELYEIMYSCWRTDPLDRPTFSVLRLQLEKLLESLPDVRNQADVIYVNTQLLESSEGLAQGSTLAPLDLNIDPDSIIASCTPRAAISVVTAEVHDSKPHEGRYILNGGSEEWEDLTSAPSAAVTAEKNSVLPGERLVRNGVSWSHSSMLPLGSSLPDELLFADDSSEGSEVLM
# Jak2, sequence (O60674 whole entry, looked up): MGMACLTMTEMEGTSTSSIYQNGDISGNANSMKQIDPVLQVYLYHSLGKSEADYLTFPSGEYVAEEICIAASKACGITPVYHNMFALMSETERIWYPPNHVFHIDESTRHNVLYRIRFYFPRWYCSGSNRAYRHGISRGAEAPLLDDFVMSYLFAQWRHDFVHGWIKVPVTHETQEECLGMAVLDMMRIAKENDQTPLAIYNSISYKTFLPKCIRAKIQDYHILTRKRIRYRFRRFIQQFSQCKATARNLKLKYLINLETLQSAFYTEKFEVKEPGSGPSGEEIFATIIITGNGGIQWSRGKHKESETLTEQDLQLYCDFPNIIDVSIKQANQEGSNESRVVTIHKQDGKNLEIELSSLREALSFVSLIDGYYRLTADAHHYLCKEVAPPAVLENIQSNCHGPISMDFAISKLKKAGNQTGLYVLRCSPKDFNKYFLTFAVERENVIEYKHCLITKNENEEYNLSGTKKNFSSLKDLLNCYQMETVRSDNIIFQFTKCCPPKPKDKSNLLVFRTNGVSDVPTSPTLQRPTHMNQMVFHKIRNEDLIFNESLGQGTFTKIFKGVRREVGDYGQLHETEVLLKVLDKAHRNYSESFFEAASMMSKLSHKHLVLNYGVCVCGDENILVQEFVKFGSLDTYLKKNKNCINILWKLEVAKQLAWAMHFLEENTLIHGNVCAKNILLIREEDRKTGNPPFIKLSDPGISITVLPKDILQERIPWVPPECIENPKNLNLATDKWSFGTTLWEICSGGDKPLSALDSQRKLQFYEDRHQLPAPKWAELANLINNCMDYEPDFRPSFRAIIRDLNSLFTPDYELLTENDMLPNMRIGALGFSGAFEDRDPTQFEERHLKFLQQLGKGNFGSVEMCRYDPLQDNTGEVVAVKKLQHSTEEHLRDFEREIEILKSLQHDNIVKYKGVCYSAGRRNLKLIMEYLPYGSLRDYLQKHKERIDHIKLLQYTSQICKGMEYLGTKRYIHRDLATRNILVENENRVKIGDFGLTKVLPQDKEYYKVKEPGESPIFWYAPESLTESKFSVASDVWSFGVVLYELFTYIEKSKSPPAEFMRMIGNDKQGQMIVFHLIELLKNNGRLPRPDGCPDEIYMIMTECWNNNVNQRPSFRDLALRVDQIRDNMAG
# EPHB2, sequence (P29323 whole entry, looked up): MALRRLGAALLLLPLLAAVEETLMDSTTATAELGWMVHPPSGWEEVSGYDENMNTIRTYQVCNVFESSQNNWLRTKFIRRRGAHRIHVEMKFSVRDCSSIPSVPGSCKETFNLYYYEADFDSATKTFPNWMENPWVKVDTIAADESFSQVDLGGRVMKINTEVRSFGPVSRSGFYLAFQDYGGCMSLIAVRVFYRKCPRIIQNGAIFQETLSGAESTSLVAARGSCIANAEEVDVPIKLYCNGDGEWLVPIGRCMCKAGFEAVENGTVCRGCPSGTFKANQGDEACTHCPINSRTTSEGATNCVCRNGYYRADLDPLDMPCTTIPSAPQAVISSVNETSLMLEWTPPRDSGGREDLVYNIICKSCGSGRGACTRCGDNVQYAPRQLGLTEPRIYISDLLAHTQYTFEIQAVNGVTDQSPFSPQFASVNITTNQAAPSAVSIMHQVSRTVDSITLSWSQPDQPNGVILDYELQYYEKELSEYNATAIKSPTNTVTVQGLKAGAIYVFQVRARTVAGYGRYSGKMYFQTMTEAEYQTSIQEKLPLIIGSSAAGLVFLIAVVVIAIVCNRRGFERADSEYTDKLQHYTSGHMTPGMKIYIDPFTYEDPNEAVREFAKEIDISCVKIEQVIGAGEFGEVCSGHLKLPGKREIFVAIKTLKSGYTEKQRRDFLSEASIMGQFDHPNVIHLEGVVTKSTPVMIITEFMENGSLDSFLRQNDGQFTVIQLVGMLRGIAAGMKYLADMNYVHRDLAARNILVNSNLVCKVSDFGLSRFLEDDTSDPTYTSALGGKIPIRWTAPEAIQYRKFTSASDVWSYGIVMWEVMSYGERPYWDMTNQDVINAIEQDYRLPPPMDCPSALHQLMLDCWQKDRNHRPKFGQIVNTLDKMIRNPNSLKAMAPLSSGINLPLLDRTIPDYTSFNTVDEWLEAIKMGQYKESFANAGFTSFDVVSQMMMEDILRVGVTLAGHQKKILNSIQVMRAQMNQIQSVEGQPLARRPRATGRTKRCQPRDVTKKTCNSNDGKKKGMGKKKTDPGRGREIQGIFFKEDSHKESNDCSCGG
# EPHB1, sequence (P54762 whole entry, looked up): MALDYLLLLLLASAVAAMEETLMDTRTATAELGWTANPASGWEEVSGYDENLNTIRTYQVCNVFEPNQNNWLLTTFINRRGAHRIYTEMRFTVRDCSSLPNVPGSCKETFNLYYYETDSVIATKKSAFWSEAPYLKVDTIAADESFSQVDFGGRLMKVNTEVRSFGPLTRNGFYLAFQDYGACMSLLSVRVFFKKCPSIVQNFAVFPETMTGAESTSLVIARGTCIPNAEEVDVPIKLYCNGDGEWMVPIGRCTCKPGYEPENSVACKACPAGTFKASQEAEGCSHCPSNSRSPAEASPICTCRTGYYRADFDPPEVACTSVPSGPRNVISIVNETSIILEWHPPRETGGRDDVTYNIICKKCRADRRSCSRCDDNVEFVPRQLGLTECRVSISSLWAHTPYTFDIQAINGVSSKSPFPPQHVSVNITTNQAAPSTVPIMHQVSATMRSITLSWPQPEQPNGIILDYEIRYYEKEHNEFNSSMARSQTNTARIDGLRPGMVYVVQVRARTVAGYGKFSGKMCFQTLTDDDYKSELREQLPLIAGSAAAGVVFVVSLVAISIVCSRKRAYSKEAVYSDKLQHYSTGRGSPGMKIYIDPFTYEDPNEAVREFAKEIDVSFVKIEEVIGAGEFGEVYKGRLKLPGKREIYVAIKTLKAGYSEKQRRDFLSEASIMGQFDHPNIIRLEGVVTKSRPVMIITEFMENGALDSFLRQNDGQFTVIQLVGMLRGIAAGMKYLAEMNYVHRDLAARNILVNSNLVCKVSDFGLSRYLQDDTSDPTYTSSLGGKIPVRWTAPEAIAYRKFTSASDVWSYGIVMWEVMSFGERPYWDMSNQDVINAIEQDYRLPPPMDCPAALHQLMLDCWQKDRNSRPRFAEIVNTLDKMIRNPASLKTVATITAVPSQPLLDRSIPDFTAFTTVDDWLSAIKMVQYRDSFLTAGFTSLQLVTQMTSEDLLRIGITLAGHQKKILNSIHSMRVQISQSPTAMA
# Hck, sequence (P08631 whole entry, looked up): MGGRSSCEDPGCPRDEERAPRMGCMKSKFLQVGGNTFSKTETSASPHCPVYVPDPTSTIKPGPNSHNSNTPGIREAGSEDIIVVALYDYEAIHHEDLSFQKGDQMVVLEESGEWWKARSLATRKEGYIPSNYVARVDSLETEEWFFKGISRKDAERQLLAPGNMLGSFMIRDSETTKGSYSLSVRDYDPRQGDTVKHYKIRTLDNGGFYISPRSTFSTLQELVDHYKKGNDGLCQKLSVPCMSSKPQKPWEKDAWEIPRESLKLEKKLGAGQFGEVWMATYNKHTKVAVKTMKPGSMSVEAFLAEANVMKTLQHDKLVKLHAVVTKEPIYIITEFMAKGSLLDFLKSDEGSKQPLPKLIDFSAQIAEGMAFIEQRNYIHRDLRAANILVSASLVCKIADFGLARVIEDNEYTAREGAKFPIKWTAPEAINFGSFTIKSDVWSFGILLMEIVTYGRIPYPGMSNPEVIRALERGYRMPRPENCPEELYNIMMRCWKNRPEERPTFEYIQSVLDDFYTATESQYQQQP
Sequence,SH2 binding enrichment [1],SH2 binding enrichment [2],SH2 binding enrichment [3],phosphorylation enrichment [4],phosphorylation enrichment [5],phosphorylation enrichment [6],phosphorylation enrichment [7],phosphorylation enrichment [8],phosphorylation enrichment [9],phosphorylation enrichment [10],phosphorylation enrichment [11],phosphorylation enrichment [12],phosphorylation enrichment [13],phosphorylation enrichment [14],phosphorylation enrichment [15],phosphorylation enrichment [16]
EAKENYGKTLK [CHL1_Y291_T287A],0.432,0.754,0.503,0.314,0.495,0.348,0.456,0.52,0.305,0.328,0.424,0.655,0.441,0.338,0.732,0.327
SRPHLYGTPSR [ADGRE2_Y670],1.09,1.54,0.825,0.617,0.538,0.493,0.426,0.588,0.402,0.565,0.441,0.609,0.619,0.615,0.587,0.58
NAPNSYGRRLI [CDKN2A_Y44_P48L],0.332,0.897,0.32,0.454,0.48,0.372,0.446,0.531,0.475,0.504,0.449,0.627,0.509,0.413,0.616,0.442
ISNATYKEIGL [FLT1_Y199],1.04,0.823,0.587,0.498,0.467,0.352,0.446,0.442,0.471,0.485,0.366,0.462,0.438,0.447,0.605,0.304
ENPLDYGSAWA [AR_Y395],0.454,0.716,0.806,0.565,0.709,0.46,0.491,0.991,0.524,0.559,0.476,0.992,0.744,0.527,1.08,0.395
PYSNSYENSLI [EPOR_Y489_P488S],4.51,18.4,0.735,0.433,1.06,0.713,1.04,0.903,0.754,0.887,0.689,1.32,0.854,0.699,1.41,0.552
QMVGMYASSFM [AVPR2_Y124_YF],0.548,0.626,0.637,0.914,1.48,0.922,0.73,1.21,0.904,1.34,1.6,0.981,0.782,1.59,1.07,2.31
KVGNGYISAAE [CALM2_Y100_D96V],0.53,0.892,0.546,0.468,0.538,0.4,0.456,0.485,0.476,0.393,0.391,0.619,0.588,0.337,0.65,0.42
AVLSLYASDRT [ACTA1_Y145_G148D],0.452,0.895,0.88,0.664,0.893,0.662,0.476,0.884,0.515,0.538,0.465,0.967,0.666,0.637,1.14,0.446
FYDANCDGKEY [MAPRE2_Y162_Y162C],0.617,1.03,0.641,0.682,0.81,0.651,0.497,1.13,0.527,0.563,0.642,1.21,0.922,0.612,1.4,0.539
LPKEQYLFTKE [AFG3L2_Y614_YF],0.762,0.911,1.06,0.471,0.551,1.2,0.623,0.532,0.817,0.996,0.406,0.83,1.51,1.59,1.49,0.499
PSPMPYACCQM [FOXL2_Y215_S217C],1.32,0.888,0.426,0.437,0.49,0.663,0.494,0.516,0.831,0.427,1.02,0.703,0.812,0.71,1.3,0.615
SFPSTYRFERG [INPPL1_Y661_P659S_YF],0.466,0.828,0.655,0.394,0.644,0.345,0.411,0.724,0.427,0.479,0.569,0.538,0.538,0.39,0.652,0.392
PEPTGYSAELS [EZR_Y499_A494P],0.461,0.87,0.63,0.851,0.962,0.573,0.502,0.871,0.456,0.419,0.461,1.02,0.762,0.57,0.943,0.567
NDLMEYAKQHG [ASS1_Y163],0.381,0.724,0.621,0.471,0.75,0.48,0.487,0.856,0.541,0.502,0.437,0.852,0.563,0.457,0.896,0.426
RELSWYRGQRP [HESX1_Y106_R109Q],0.597,1.78,0.785,0.661,0.38,0.581,0.506,0.956,0.376,0.552,0.401,0.962,0.541,0.505,0.901,0.488
VDASFCGGRGV [ANTXR2_Y381_Y381C_YF],0.389,0.728,0.559,0.495,0.744,0.514,0.531,0.894,0.49,0.539,0.413,0.818,0.629,0.405,1.11,0.396
GLNKGYRMVVN [HINT1_Y94],0.424,0.665,0.503,0.392,0.461,0.307,0.388,0.403,0.318,0.436,0.34,0.531,0.449,0.375,0.696,0.303

# More lines, main results first:
SH2 binding enrichment [1],SH2 binding enrichment [2],SH2 binding enrichment [3],Sequence,phosphorylation enrichment [4],phosphorylation enrichment [5],phosphorylation enrichment [6],phosphorylation enrichment [7],phosphorylation enrichment [8],phosphorylation enrichment [9],phosphorylation enrichment [10],phosphorylation enrichment [11],phosphorylation enrichment [12],phosphorylation enrichment [13],phosphorylation enrichment [14],phosphorylation enrichment [15],phosphorylation enrichment [16]
0.69,0.89,0.875,AELVRYYMEHH [PTPN11_Y80_Q79R],0.857,0.421,1.03,0.623,0.865,0.457,0.683,0.486,0.856,0.673,0.514,1.12,0.639
0.391,0.608,0.58,YRVAGYETQGG [TIA1_Y383],0.338,0.906,0.329,0.399,0.392,0.351,0.37,0.295,0.436,0.352,0.378,0.646,0.324
0.549,0.973,0.885,KREPQYSSHSS [SIPA1L3_Y1265_G1261R],0.306,0.486,0.423,0.377,0.43,0.401,0.362,0.506,0.559,0.376,0.338,0.629,0.452
0.636,0.667,0.698,QEALEYFMKQM [PIK3CA_Y1038],0.624,1.19,0.644,0.627,1.49,0.584,0.39,0.675,1.36,0.704,0.696,1.22,0.584
1.27,0.805,0.803,LLQAEYWHDPI [PPT1_Y185_V181L],0.511,1.62,0.682,4.99,1.55,0.74,0.667,0.864,1.89,3.92,0.975,1.96,0.726
0.735,1.11,0.801,RLNWIYYKDQT [RS1_Y165],0.712,0.676,0.985,0.643,1.78,0.844,0.947,0.616,1.53,0.98,0.687,2.66,0.672
0.837,0.883,0.843,FSPCDYQPCLA [TNS1_Y798_Y796C_YF],6.05,0.996,11.6,2.38,1.05,0.539,0.659,1.42,1.84,1.58,0.581,1.11,0.49
0.918,0.774,0.994,FKEVVYQAMEE [TACC3_Y684_E680K],0.814,1.11,1.06,0.771,1.04,0.829,1.66,2.88,1.55,0.884,2.37,1.05,1.62
1.38,1.72,1.65,ALKKPYSVLYK [RPF2_Y59_G60S],0.433,0.516,0.399,0.385,0.467,0.44,0.474,0.454,0.603,0.406,0.36,0.674,0.436
0.537,0.966,0.725,PVGVLYEVKVY [PTS_Y128_K129E],0.552,2.37,0.945,0.783,1.78,0.56,0.728,0.585,1.64,1.02,0.775,1.67,0.55
0.473,0.795,0.714,EDGRLYAVKCS [PKMYT1_Y136_R140C],0.609,0.82,0.594,0.513,0.861,0.529,0.792,0.63,0.972,0.66,0.589,1.12,0.549

# — the supplement of paper PMC10065799, “High-throughput profiling of sequence recognition by tyrosine kinases and SH2 domains using bacterial peptide display” (eLife, 2023)
